Reference: patent US20160032278A1
pKd: −log10 of the molar value.

How the values were obtained:
papain [1] = molecular target: papain (UniProt P00784); assay: SPR; text value differs from Table 3 (4.7 × 10^-9)
papain [2] = molecular target: papain (UniProt P00784); assay: SPR, cystatin immobilised on NTA chip via His tag, papain in solution
papain [3] = molecular target: papain (UniProt P00784); assay: cell-based or functional assay

papain, sequence (P00784 134-345 limits assumed): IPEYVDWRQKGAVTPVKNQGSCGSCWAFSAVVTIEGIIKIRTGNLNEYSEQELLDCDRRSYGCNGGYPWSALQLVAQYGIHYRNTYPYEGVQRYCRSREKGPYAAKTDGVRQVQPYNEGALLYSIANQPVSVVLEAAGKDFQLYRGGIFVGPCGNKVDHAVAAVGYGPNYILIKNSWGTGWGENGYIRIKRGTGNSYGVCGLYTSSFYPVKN

Substance	pKd (papain [1])	Ka (papain [2]) [M⁻¹]	pKd (papain [2])	koff (papain [2]) [s⁻¹]	kon (papain [2]) [M⁻¹ s⁻¹]	IC50, papain inhibition (substrate pGlu-Phe-Leu-p-nitroanilide) (papain [3]) [M]
OSA-IΔD86 (modified oryzacystatin I lacking residue Asp86) (from UniProt P09229 39-140)	7.33	2.1e+08	8.33	0.0012	260000	1.8e-07
CPA (papaya cystatin, Carcia papaya)		5e+07	7.70	0.0052	260000	
CUN (satsuma orange cystatin, Citrus unshiu)		7.3e+07	7.85	0.0035	260000	
